Measured values from US20240287196A1 (published 2024).
Where two headings read alike, the source gives them in different places.

Columns and labels:
[1] = target: T1, human ALK7-Fc comprising protein (human, UniProt Q8NER5 22-113); test: SPR (Biacore T100/T200); antibody captured on FAB chip, ALK7-Fc comprising protein as analyte; 1:1 model
T1 construct: also called hALK7-Fc; not shown: Fc part and any linker
T1 sequence: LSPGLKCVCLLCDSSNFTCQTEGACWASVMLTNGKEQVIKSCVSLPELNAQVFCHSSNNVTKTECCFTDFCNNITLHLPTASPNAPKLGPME
Protocol: (§1) Experiments were performed using a Biacore T100/T200 biosensor (Biacore/GE Healthcare) at 25 and 37° C. ALK7 antibodies were captured on custom made FAB chip. A concentration series of ALK7-Fc comprising protein was injected over the flow cells at a flow rate of […]. To obtain kinetic rate constants the corrected data were fit to a 1:1 interaction model using BiaEvaluation software (GE Healthcare). The equilibrium binding constant KD was determined by the ratio of binding rate constants kd/ka.

[2] = target: T2, rat Alk7-Fc comprising protein (rat, UniProt P70539 26-113); test: as above
T2 construct: not shown: Fc part and any linker
T2 sequence: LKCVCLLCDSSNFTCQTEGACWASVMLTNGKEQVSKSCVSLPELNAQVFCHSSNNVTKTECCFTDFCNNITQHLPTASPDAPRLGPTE
Protocol: as §1

[3] = target: T3, ALK7-Fc comprising protein (Homo sapiens (Human), UniProt Q8NER5 21-113); test: SPR (Biacore T100/T200), 25 °C; antibody captured on FAB chip, ALK7-Fc comprising protein as analyte; 1:1 model
T3 construct: not shown: The Fc part and any linker of the fusion; The construct's exact ALK7 limits are not seen either
T3 sequence: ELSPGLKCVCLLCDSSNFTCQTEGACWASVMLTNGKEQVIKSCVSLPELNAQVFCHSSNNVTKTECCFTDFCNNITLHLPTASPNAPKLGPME
Protocol: as §1, with “comprisingprotein” for “comprising protein”, “kd/kₐ.” for “kd/ka.”

[4] = target: T4, ALK7 on differentiated 3T3-L1 adipocytes (UniProt Q8K348 26-493, limits assumed); test: cell-based or functional assay
T4 sequence (looked up): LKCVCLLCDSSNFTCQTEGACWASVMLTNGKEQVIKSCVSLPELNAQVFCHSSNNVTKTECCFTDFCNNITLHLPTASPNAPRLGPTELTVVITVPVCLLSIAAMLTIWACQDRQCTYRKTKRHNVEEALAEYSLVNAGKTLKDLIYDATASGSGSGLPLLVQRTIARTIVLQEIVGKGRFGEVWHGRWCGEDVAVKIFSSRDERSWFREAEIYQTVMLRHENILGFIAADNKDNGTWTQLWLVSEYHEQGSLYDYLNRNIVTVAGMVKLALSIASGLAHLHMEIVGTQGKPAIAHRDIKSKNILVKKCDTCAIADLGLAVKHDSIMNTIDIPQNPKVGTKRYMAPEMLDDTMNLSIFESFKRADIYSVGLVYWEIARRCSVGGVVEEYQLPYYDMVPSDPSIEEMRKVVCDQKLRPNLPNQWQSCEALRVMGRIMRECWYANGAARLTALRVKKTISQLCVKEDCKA

[5] = target: T1, human ALK7-Fc comprising protein; test: SPR (Biacore T100/T200); antibody captured on FAB chip, ALK7-Fc comprising protein as analyte; 1:1 model; remark: listed apart in the source

Binder	Kd [3] [nM]	koff [3] [s⁻¹]	kon [3] [M⁻¹ s⁻¹]	also measured
K01 (antibody, V domains shown, also called antibody K01) VH: not shown VL: DIQMTQSPSSLSASVGDRVTITCRASQSISSYLNWYQQKPGKAPKLLIYGASSLQSGVPSRFSGSGSGTDFTLTISSLQPEDFATYYCQQAYSFPWTFGGGIKVEIK	–	–	–	Kd [1]: 201 nM; koff [1]: 0.00916 s⁻¹; kon [1]: 45600 M⁻¹ s⁻¹; Kd [2]: 8.14 nM; koff [2]: 0.000139 s⁻¹; kon [2]: 17100 M⁻¹ s⁻¹
J02 (antibody, V domains shown, also called mAb J02; antibody J02) VH: EVQLLESGGGLVQPGGSLRLSCAASGFTFSVYAMSWVRQAPGKGLEWVSAISGSGDSTVYADSVKGRFTISRDNSKNTLYLQMNSLRAEDTAVYYCAKPSYQPIYWGQGTLVTVSS VL: DIQMTQSPSSVSASVGDRVTITCRASQGISSWLAWYQQKPGKAPKLLIYAASSLQSGVPSRFSGSGSGTDFTLTISSLQPEDFATYYCQQAASYPLTFGGGTKVEIK	5.33	0.000126	23600	–
K02 (antibody, V domains shown, also called mAb K02; antibody K02) VH: QVQLVQSGAEVKKPGSSVKVSCKASGGTFSSSAIGWVRQAPGQGLEWMGGIWPIFGTALYAQKFQGRVTITADESTSTAYMELSSLRSEDTAVYYCARDPREYIHVFDIWGQGTMVTVSS VL: DIQMTQSPSSLSASVGDRVTITCRASQSISSYLNWYQQKPGKAPKLLIYGASSLQSGVPSRFSGSGSGTDFTLTISSLQPEDFATYYCQQAYSFPWTFGGGIKVEIK	12.4	0.000291	23500	–
C03 (antibody, human IgG1, kappa, V domains shown, also called mAb C03; antibody C03) VH: QLQLQESGPGLVKPSETLSLTCTVSGGSISSSAYYWAWIRQPPGKGLEWIGSIYLSGSTTYNPSLKSRVTISVDTSKNQFSLKLSSVTAADTAVYYCARDGRYQSRSPDYYYGMDVWGQGTTVTVSS VL: EIVLTQSPGTLSLSPGERATLSCKASQSVSSSYLAWYQQKPGQAPRLLIYGAFSRANGIPDRFSGSGSGTDFTLTISRLEPEDFAVYYCQQLVSYPFTFGGGTKVEIKR	0.33	1.27e-05	38300	–
G04 (antibody, V domains shown, also called antibody G04) VH: QVQLVQSGAEVKKPGSSVKVSCKASGGTFSSYAISWVRQAPGQGLEWMGGIIPIFGTASYAQKFQGRVTITADESTSTAYMELSSLRSEDTAVYYCARTPYYDSSGYLDVWGQGTMVTVSS VL: DIQMTQSPSSLSASVGDRVTITCQASQDISNYLNWYQQKPGKAPKLLIYDASNLATGVPSRFSGSGSGTDFTFTISSLQPEDIATYYCQQSLDLPPTFGGGTKVEIK	–	–	–	Increase in lipolysis activity (%) [4]: 45.8%; Kd [5]: 247 nM; koff [5]: 0.0222 s⁻¹; kon [5]: 89600 M⁻¹ s⁻¹
G05 (antibody, human IgG1, kappa, V domains shown, also called mAb G05; antibody G05) VH: QVQLVQSGAEVKKPGSSVKVSCKASGGTFSGQAISWVRQAPGQGLEWMGGIIPSFGTARYAQKFQGRVTITADESTSTAYMELSSLRSEDTAVYYCARTPYYDSSGYLDVWGQGTMVTVSS VL: DIQMTQSPSSLSASVGDRVTITCQASHDIDNYLNWYQQKPGKAPKLLIYYASNLKTGVPSRFSGSGSGTDFTFTISSLQPEDIATYYCQQSRASPPTFGGGTKVEIKR	0.87	2.59e-05	29900	–
L01 (antibody, V domains shown, also called antibody L01) VH: QVQLVQSGAEVKKPGSSVKVSCKASGGTFSSYAISWVRQAPGQGLEWMGSIIPIFGTANYAQKFQGRVTITADESTSTAYMELSSLRSEDTAVYYCARDPVGARYEVFDYWGQGTLVTVSS VL: EIVMTQSPATLSVSPGERATLSCRASQSVSSNLAWYQQKPGQAPRLLIYSASTRATGIPARFSGSGSGTEFTLTISSLQSEDFAVYYCQQANTFPLTFGGGTKVEIK	–	–	–	Kd [1]: 15.1 nM; kon [1]: 24300 M⁻¹ s⁻¹; Kd [2]: 22.9 nM; koff [2]: 0.000271 s⁻¹; kon [2]: 11800 M⁻¹ s⁻¹
L02 (antibody, V domains shown, also called mAb L02; antibody L02) VH: QVQLVQSGAEVKKPGASVKVSCKASGYTFAGYNMHWVRQAPGQGLEWVGIINPNSGWTNYAQKFQGRVTMTRDTSVSAAYMELSRLRSDDTAVYYCARDPVGARYEVFDYWGQGTLVTVSS VL: EIVMTQSPATLSVSPGERATLSCRASQSVSSALAWYQQKPGQAPRLLIYSAFTRASGIPARFSGSGSGTEFTLTISSLQSEDFAVYYCQQAWAFPLTFGGGTKVEIK	0.44	1.21e-05	27400	–
